Measured values as given in patent US20160068604A1 (University of Texas, published 2016).

Columns and labels:
human OX40 [1] = molecular target: T1, human OX40 (human, UniProt P43489 29-277); experiment: flow cytometry on L/OX40 cells, FITC goat anti-human IgG
T1 construct: whole, on cells; also called hOX40; OX40 receptor
T1 sequence (looked up): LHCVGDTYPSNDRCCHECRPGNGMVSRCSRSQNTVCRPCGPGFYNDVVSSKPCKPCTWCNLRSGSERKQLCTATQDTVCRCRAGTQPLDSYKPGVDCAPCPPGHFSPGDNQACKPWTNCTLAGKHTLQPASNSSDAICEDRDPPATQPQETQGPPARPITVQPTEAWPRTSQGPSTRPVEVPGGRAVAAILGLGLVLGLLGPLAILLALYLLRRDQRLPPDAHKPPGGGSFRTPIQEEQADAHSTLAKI
Protocol: In a typical experiment, various concentrations of Ch119-43-1 were incubated with 10⁵ L/OX40 cells in PBS containing 0.5% BSA and 0.05% NaN₃ (FACS Buffer) for 1 hour at 4° C. Cells were then washed with ice-cold FACS Buffer and subjected to incubation with FITC-labeled goat anti-human IgG antibody for 30 min at 4° C. After washing with FACS Buffer, stained cells were analyzed using a FACScan flow cytometer (BD Biosciences, San Jose, Calif.).

human OX40 [2] = molecular target: T1, human OX40; experiment: FACS binding assay on L/hOX40 cells, PE goat anti-human IgG
human OX40 [3] = molecular target: T1, human OX40; experiment: cell ELISA on dried L-hOX40 versus parental L cells, anti-mouse IgG Fc HRP
Protocol: In the experiment of FIG. 10, hOX40 hybridoma supernatants were screened against L-hOX40 versus L parental cells by ELISA. […] Plates were then frozen at −20° C. for at least one day before use. For antibody binding assays, frozen cells were rehydrated with PBS and washed with wash buffer containing PBS plus 0.05% Tween 20, and blocked with 2% BSA in wash buffer. Conditioned cells were then used for binding to OX40 antibody supernatants.

human OX40 [4] = molecular target: T1, human OX40; experiment: FACS binding assay on L/OX40 cells, PE goat anti-human IgG

B1: Chimeric 119-43-1 IgG1/kappa antibody (antibody, V domains shown)
VH: EVKLEESGGGLVQPGGSMKLSCAASGFTFSDAWMDWVRQSPEKGLEWVAEIRSKANNHATYYAESVNGRFTISRDDSKSSVYLQMNSLRAEDTGIYYCTWGEVFYFDYWGQGTTLTVSS
VL: DIQMTQSPSSLSASLGGKVTITCKSSQDINKYIAWYQHKPGKGPRLLIHYTSTLQPGIPSRFSGSGSGRDYSFSISNLEPEDIATYYCLQYDNLLTFGAGTKLELKR
notes: also called Ch119-43-1
B1 showed an EC50 (human OX40 [1]) of 0.96 µg/mL.

B2: Humanized 106-222 IgG1/kappa monoclonal antibody (antibody, V domains shown)
VH: QVQLVQSGSELKKPGASVKVSCKASGYTFTDYSMHWVRQAPGQGLKWMGWINTETGEPTYADDFKGRFVFSLDTSVSTAYLQISSLKAEDTAVYYCANPYYDYVSYYAMDYWGQGTTVTVSS
VL: DIQMTQSPSSLSASVGDRVTITCKASQDVSTAVAWYQQKPGKAPKLLIYSASYLYTGVPSRFSGSGSGTDFTFTISSLQPEDIATYYCQQHYSTPRTFGQGTKLEIK
notes: Human IgG1/kappa; also called Hu222
B2: binds (human OX40 [2]).

B3: mouse anti-human OX40 monoclonal antibody 106-222 (antibody, V domains shown)
VH: QIQLVQSGPELKKPGETVKISCKASGYTFTDYSMHWVKQAPGKGLKWMGWINTETGEPTYADDFKGRFAFSLETSASTAYLQINNLKNEDTATYFCANPYYDYVSYYAMDYWGHGTSVTVSS
VL: DIVMTQSHKFMSTSVRDRVSITCKASQDVSTAVAWYQQKPGQSPKLLIYSASYLYTGVPDRFTGSGSGTDFTFTISSVQAEDLAVYYCQQHYSTPRTFGGGTKLEIK
notes: Mouse hybridoma antibody; also called Mouse222
B3: binds (human OX40 [3]).

B4: mouse anti-human OX40 monoclonal antibody 119-122 (antibody, V domains shown)
VH: EVQLVESGGGLVQPGESLKLSCESNEYEFPSHDMSWVRKTPEKRLELVAAINSDGGSTYYPDTMERRFIISRDNTKKTLYLQMSSLRSEDTALYYCARHYDDYYAWFAYWGQGTLVTVSA
VL: DIVLTQSPASLAVSLGQRATISCRASKSVSTSGYSYMHWYQQKPGQPPKLLIYLASNLESGVPARFSGSGSGTDFTLNIHPVEEEDAATYYCQHSRELPLTFGAGTKLELK
notes: Mouse hybridoma antibody; also called Mouse122
B4: binds (human OX40 [3]).

B5: Chimeric 106-222 IgG1/kappa monoclonal antibody (antibody, V domains shown)
VH: B3 VH
VL: B3 VL
notes: Mouse variable regions with human gamma-1 and kappa constant regions (IgG1/kappa); also called Ch222
B5: binds (human OX40 [2]).

B6: Humanized 119-122 IgG1/kappa monoclonal antibody (antibody, V domains shown)
VH: EVQLVESGGGLVQPGGSLRLSCAASEYEFPSHDMSWVRQAPGKGLELVAAINSDGGSTYYPDTMERRFTISRDNAKNSLYLQMNSLRAEDTAVYYCARHYDDYYAWFAYWGQGTMVTVSS
VL: EIVLTQSPATLSLSPGERATLSCRASKSVSTSGYSYMHWYQQKPGQAPRLLIYLASNLESGVPARFSGSGSGTDFTLTISSLEPEDFAVYYCQHSRELPLTFGGGTKVEIK
notes: Human IgG1/kappa; also called Hu119
B6: binds (human OX40 [4]).

B7: Chimeric 119-122 IgG1/kappa monoclonal antibody (antibody, V domains shown)
VH: B4 VH
VL: B4 VL
notes: Mouse variable regions with human gamma-1 and kappa constant regions (IgG1/kappa); also called Ch119
B7: binds (human OX40 [4]).
